Assay results taken from US10844127.
Like-named read-outs stand apart in the source and are kept apart here.

Experiments:
Experiment in all cases: cell-based or functional assay
[1] = biological target: human EGFR, full length (human) (UniProt P00533)
[2] = biological target: human HER3 (ErbB-3) on BxPC-3 cells (human) (UniProt P21860)
[3] = biological target: human EGFR, full length (human) (UniProt P00533); remark: listed apart in the source
[4] = biological target: human HER3 (ErbB-3) on BxPC-3 cells (human) (UniProt P21860); remark: listed apart in the source

IC50 for BxPC-3 ligand-driven cell proliferation inhibition (pM) [1]: 260 pM | IC50 for BxPC-3 ligand-driven cell proliferation inhibition (pM) [2]: 260 pM | IC50 for BxPC-3 ligand-driven cell proliferation inhibition (pM) [3]: 287 pM | IC50 for BxPC-3 ligand-driven cell proliferation inhibition (pM) [4]: 287 pM
B1: MEHD7945A (antibody, INN chains, looked up, V domains shown)
VH: EVQLVESGGGLVQPGGSLRLSCAASGFTLSGDWIHWVRQAPGKGLEWVGEISAAGGYTDYADSVKGRFTISADTSKNTAYLQMNSLRAEDTAVYYCARESRVSFEAAMDYWGQGTLVTVSS
VL: DIQMTQSPSSLSASVGDRVTITCRASQNIATDVAWYQQKPGKAPKLLIYSASFLYSGVPSRFSGSGSGTDFTLTISSLQPEDFATYYCQQSEPEPYTFGQGTKVEIK
